Test results: publication PMC8080960 (The journal of physical chemistry. B, 2021)

Molecular target: the molecule itself
Assay: amyloid fibril formation

B1: C-terminal domain of TDP-43 (TDP-43CTD), wild type, residues 267-414, tagless (domain or fragment)
chain: GHMNRQLERSGRFGGNPGGFGNQGGFGNSRGGGAGLGNNQGSNMGGGMNFGAFSINPAMMAAAQAALQSSWGMMGMLASQQNQSGPSGNNQNQGNMQREPNQAFGSGNNSYSGSNSGAAIGWGSASNAGSGSGFNGGFGSSMDSKSSGWGM
B1: binds.
